Laboratory results taken from patent publication US20120270234A1, “DDR2 PROTEIN WITH ACTIVATED KINASE ACTIVITY AND PREPARATION METHOD THEREOF” (KOREA INSTITUTE OF SCIENCE AND TECHNOLOGY, priority 2003, published 2012).

T1: fusion protein of glutathione S transferase and human DDR2 cytosolic tyrosine kinase domain (GST-DDR2 CKD), expressed alone in sf9 cells
T1 sequence: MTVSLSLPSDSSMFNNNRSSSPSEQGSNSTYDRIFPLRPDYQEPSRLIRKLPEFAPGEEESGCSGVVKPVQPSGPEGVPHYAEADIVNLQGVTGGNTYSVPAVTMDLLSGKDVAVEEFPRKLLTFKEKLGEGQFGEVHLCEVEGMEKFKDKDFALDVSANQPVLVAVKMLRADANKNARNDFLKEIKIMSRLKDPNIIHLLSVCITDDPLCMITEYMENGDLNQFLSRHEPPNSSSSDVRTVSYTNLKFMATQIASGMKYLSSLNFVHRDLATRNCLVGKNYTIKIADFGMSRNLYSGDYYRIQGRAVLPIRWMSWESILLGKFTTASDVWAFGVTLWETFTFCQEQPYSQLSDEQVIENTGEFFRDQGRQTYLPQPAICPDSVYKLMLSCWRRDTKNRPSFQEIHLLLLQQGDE


Tests used:
[1] = system: T1, fusion protein of glutathione S transferase and human DDR2 cytosolic tyrosine kinase domain (GST-DDR2 CKD), expressed alone in sf9 cells
shc protein = experiment: in vitro shc binding assay using HSC T6 cell lysate; set-up: species or system human
Source text: One of the characteristic features of tyrosine phosphorylated cytosolic domain of receptor tyrosine kinase is to recruit the signaling proteins such as shc protein. This complex formation between the cytosolic domain of receptor tyrosine kinase protein and signaling proteins such as shc is important for the cellular transmission of the activated receptor tyrosine kinase signal. It has been observed in HSC T6 liver stellate cells and fibroblast cells that shc, one of signaling protein containing PTB domain binds to activated DDR2 cytosolic domain. The present inventors examined whether the invented DDR2 cytosolic tyrosine kinase domain protein with induced tyrosine phosphorylation for example, by the method of co-expression with c-Src in sf 9 cells or with the mutation of tyrosine 740 to phenylalanine 740 can be used for in vitro shc binding assay. In FIG. 15, the purified GST-DDR2 cytosolic domain from sf 9 cells with and without Src coinfection were used for in vitro shc binding assay. Each protein was subject to autophosphorylation reaction at 30° C. for 15 min, and a mock-autophosphylation reaction as well where gamma-S-ATP was used instead of ATP in the reaction buffer before they were used for in vitro shc binding assay using HSC T6 cell lysate.
The purified GST-DDR2 CKD proteins without or with tyrosine phosphorylation by Src were subject to in vitro shc binding assay after autophosphorylation reaction or a mock-autophosphorylation reaction as described in materials and methods. The bound proteins on the glutathione bead were eluted by boiling in 1× lameli buffer. The presence of shc in the eluate was measured by western blotting using shc antibody and the accumulation of tyrosine phosphorylation at GST-DDR2 CKD proteins resulted from autophosphorylation was shown by western blotting using P-tyro antibody. The presence of an equal amount of GST-DDR2 CKD proteins in each eluate was confirmed by CBB staining. ‘Bead only’ means that no GST-DDR2 CKD protein was applied on glutathione bead as a control.
The same type of experiment was done as FIG. 15 using purified GST-DDR2 CKD phosphorylated by src and its mutant proteins of Y740F and Y736/740/741F.
As a source of shc protein, total lysate of HSC T6 cells was used. For the preparation of the lysate, 2×10^7 HSC T6 cells were harvested and lysed by sonication in 5 ml of lysis buffer consisting of 20 mM Tris-HCl (pH8.0), 0.1M NaCl, 5 mM DTT, 10 mM NaF, […], 0.02% IGE-PAL (Sigma) and a proteinase inhibitor cocktail pellet (Roche). The supernatant was obtained by centrifugation in 15,000 rpm for 10 min at 4° C. and used for the following shc binding assay. Various GST-DDR2 KD proteins bound to glutathione bead were obtained as described above. […]

Histone H2B = experiment: tyrosine kinase activity using Histone H2B as substrate; assay type: biochemical; conditions: reciprocal plotting 1/V vs 1/[ATP]; FIG. 9, FIG. 10
Method: The GST-DDR2 CKD was solely expressed or co-expressed with the c-Src protein at the ratio of 1:1 in insect cells; the respective obtained GST-DDR2 CKDs were purified; and the tyrosine kinase activities depending on the concentration of ATP were determined using the same amounts of the tyrosine phosphorylation-induced GST-DDR2 CKD (p-GST-DDR2 CKD by Src) which is obtained by co-expression with the c-Src protein in sf 9 cells and non-phosphorylated GST-DDR2 CKD which is obtained by solely expression in sf9 cells.
All measurements were done in triplicate.
The same amount of each protein as judged by CBB staining was used to measure its in vitro tyrosine kinase activity using histone H2B as a substrate as described in materials and methods and their tyrosine kinase activities were shown by autoradiography. Negative stands for a kinase reaction without kinase protein as a control.
Measurement of DDR2 tyrosine kinase activity towards heterologous peptide substrates was performed using 100 ng of the purified kinase protein in 20 ul of reaction mixture containing 20 mM Tris-HCl, pH 8.0, 5 mM MgCl2, 0.5 mM dithiothreitol, 0.01 mM ATP. […] The spotted filter was washed with 0.1M Tris-HCl (pH 8.0) five times for 10 min each and the radioactivity of each spot was visualized and quantitated using BAS image analyzer (Kodak).

| Molecule | level of tyrosine phosphorylation of GST-DDR2 CKD against the ratio of the two baculoviruses (western blot, phosphorylated tyrosine specific antibody) [1] | shc binding after in vitro autophosphorylation reaction (shc protein; autophosphorylation at 30° C. for 15 min, FIG. 15, FIG. 16) | shc binding before in vitro autophosphorylation (shc protein; mock-autophosphorylation with gamma-S-ATP, FIG. 15) | Km value for ATP compared with the non-phosphorylated control protein (Histone H2B) | Vmax compared with the non-phosphorylated control protein (Histone H2B) |
| --- | --- | --- | --- | --- | --- |
| full-length human c-Src tyrosine kinase | The tyrosine phosphorylation at the DDR2 cytosolic tyrosine kinase domain was meaningfully induced, when the DDR2 kinase expression virus and the c-Src protein expression virus are co-expressed even at the ratio of 19:1 |  |  |  |  |
| p-GST-DDR2 CKD by Src: tyrosine phosphorylation-induced GST-DDR2 CKD obtained by co-expression with the c-Src protein in sf 9 cells (protein, left off: a dimerising Fc or GST, tyrosine phosphorylation-induced GST-DDR2 CKD obtained by co-expression with the c-Src protein in sf 9 cells) MTVSLSLPSDSSMFNNNRSSSPSEQGSNSTYDRIFPLRPDYQEPSRLIRKLPEFAPGEEESGCSGVVKPVQPSGPEGVPHYAEADIVNLQGVTGGNTYSVPAVTMDLLSGKDVAVEEFPRKLLTFKEKLGEGQFGEVHLCEVEGMEKFKDKDFALDVSANQPVLVAVKMLRADANKNARNDFLKEIKIMSRLKDPNIIHLLSVCITDDPLCMITEYMENGDLNQFLSRHEPPNSSSSDVRTVSYTNLKFMATQIASGMKYLSSLNFVHRDLATRNCLVGKNYTIKIADFGMSRNLYSGDYYRIQGRAVLPIRWMSWESILLGKFTTASDVWAFGVTLWETFTFCQEQPYSQLSDEQVIENTGEFFRDQGRQTYLPQPAICPDSVYKLMLSCWRRDTKNRPSFQEIHLLLLQQGDE |  | significantly increased | some shc binding | decreased | increased |
